Measurements published in article PMC11255338, “A deterministic, c-di-GMP-dependent program ensures the generation of phenotypically similar, symmetric daughter cells during cytokinesis” (Nature Communications, 2024).

Experiments:
[1] = molecular target: MalE-DmxA^GAF×2 (DmxA residues 223-547: only the two GAF domains) (Myxococcus xanthus DK1622); test: SEC; HiLoad 16/600 Superdex 200 pg; SEC buffer 50 mM Tris-HCl pH 7.2, 250 mM NaCl, 10 mM MgCl2, 5 mM DTT, 5% glycerol; column calibrated with Ribonuclease A, Carbonic Anhydrase, Conalbumin and Ferritin; oligomeric state estimated from the elution volume
[2] = molecular target: T1, MalE-DmxA^WT (Myxococcus xanthus, UniProt Q1D632); test: diguanylate cyclase assay, pyrophosphate release (EnzChek); assay type: biochemical; conditions: 1 µM protein, 50 µM GTP
T1 construct: gene MXAN_3705; residues 223-722 (two GAF domains + GGDEF; N-terminal transmembrane domain removed), N-terminal MalE (MBP) tag kept, pMAL-c6t, E. coli Rosetta DE3; dimer by SEC
T1 sequence (Q1D632 211-710): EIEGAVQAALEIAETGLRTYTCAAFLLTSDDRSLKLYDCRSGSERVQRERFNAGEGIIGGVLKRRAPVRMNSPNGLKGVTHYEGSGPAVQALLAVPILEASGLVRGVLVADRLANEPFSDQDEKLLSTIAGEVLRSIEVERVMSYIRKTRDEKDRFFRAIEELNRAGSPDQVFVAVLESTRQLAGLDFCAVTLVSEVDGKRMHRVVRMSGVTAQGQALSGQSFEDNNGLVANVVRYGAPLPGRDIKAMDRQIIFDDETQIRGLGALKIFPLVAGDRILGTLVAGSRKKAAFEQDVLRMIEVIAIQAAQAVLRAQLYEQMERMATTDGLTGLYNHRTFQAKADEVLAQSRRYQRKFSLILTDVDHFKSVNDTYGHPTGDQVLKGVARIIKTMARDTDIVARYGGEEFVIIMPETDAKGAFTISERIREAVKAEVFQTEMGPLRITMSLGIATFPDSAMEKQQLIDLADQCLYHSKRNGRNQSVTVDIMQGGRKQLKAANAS

[3] = molecular target: T2, MalE-DmxA^WT (Myxococcus xanthus, UniProt Q1D632); test: as above; assay type: biochemical; conditions: 1 µM protein, 50 µM GTP; I-site mutant
T2 construct: gene MXAN_3705; residues 223-722 (two GAF domains + GGDEF; N-terminal transmembrane domain removed), N-terminal MalE (MBP) tag kept, pMAL-c6t, E. coli Rosetta DE3; dimer by SEC
T2 sequence (Q1D632 entry or part of it R603A): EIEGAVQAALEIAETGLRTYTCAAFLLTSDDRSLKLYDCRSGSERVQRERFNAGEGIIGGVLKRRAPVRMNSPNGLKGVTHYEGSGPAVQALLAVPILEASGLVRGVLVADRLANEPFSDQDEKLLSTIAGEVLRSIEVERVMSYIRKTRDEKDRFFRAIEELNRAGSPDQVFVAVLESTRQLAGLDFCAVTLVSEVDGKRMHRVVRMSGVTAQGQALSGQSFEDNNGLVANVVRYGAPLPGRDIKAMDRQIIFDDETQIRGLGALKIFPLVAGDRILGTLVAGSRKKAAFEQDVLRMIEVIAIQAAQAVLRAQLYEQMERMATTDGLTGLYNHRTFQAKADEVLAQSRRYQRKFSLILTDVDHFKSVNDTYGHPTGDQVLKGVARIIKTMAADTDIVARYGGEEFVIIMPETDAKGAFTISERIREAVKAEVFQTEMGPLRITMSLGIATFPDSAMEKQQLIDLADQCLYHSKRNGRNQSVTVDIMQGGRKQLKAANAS

[4] = molecular target: MalE-DmxA^WT (DmxA residues 223-722: two GAF domains and the GGDEF domain) (Myxococcus xanthus DK1622); test: SEC; HiLoad 16/600 Superdex 200 pg; SEC buffer 50 mM Tris-HCl pH 7.2, 250 mM NaCl, 10 mM MgCl2, 5 mM DTT, 5% glycerol; column calibrated with Ribonuclease A, Carbonic Anhydrase, Conalbumin and Ferritin; oligomeric state estimated from the elution volume
[5] = molecular target: T3, MalE-DmxA^WT (Myxococcus xanthus, UniProt Q1D632, E614A); test: bio-layer interferometry, biotinylated c-di-GMP immobilised on streptavidin sensor; assay type: binding; conditions: labelled compound (biotinylated c-di-GMP, immobilised); 10 µM protein; active-site mutant
T3 construct: gene MXAN_3705; residues 223-722 (two GAF domains + GGDEF; N-terminal transmembrane domain removed), N-terminal MalE (MBP) tag kept, pMAL-c6t, E. coli Rosetta DE3; dimer by SEC

[6] = molecular target: T1, MalE-DmxA^WT; test: diguanylate cyclase assay, pyrophosphate release (EnzChek), variable-slope inhibition fit; assay type: biochemical
[7] = molecular target: MalE-DmxA^E626A (DmxA residues 223-722 with the catalytic-site substitution E626A) (Myxococcus xanthus DK1622); test: SEC; HiLoad 16/600 Superdex 200 pg; SEC buffer 50 mM Tris-HCl pH 7.2, 250 mM NaCl, 10 mM MgCl2, 5 mM DTT, 5% glycerol; column calibrated with Ribonuclease A, Carbonic Anhydrase, Conalbumin and Ferritin; oligomeric state estimated from the elution volume
[8] = molecular target: MalE-DmxA^R615A (DmxA residues 223-722 with the I-site substitution R615A) (Myxococcus xanthus DK1622); test: as above

T3 sequence (Q1D632 entry or part of it E614A): as the sequence (Q1D632 entry or part of it R603A) above, with A393R, E404A counted along it

## MalE-DmxA^GAF×2 (DmxA residues 223-547: only the two GAF domains) (domain or fragment)
[1]
  stoichiometry N: 2

## Nc1nc2c(ncn2[C@@H]2O[C@H](COP(=O)(O)OP(=O)(O)OP(=O)(O)O)[C@@H](O)[C@H]2O)c(=O)[nH]1 [GTP]
[2]
  diguanylate cyclase assay, pyrophosphate release (EnzChek): MalE-DmxA^WT and MalE-DmxA^R615A had DGC activity
[3]
  diguanylate cyclase assay, pyrophosphate release (EnzChek): MalE-DmxA^WT and MalE-DmxA^R615A had DGC activity

## MalE-DmxA^WT (DmxA residues 223-722: two GAF domains and the GGDEF domain) (domain or fragment)
[4]
  stoichiometry N: 2

## Nc1nc2c(ncn2[C@@H]2O[C@@H]3COP(=O)(O)O[C@H]4[C@@H](O)[C@H](n5cnc6c(=O)[nH]c(N)nc65)O[C@@H]4COP(=O)(O)O[C@H]3[C@H]2O)c(=O)[nH]1 [c-di-GMP]
[5]
  bio-layer interferometry, biotinylated c-di-GMP immobilised on streptavidin sens: MalE-DmxA^WT and MalE-DmxA^E626A bound c-di-GMP
[6]
  Ki: ~15 µM

## MalE-DmxA^E626A (DmxA residues 223-722 with the catalytic-site substitution E626A) (domain or fragment)
[7]
  stoichiometry N: 2

## MalE-DmxA^R615A (DmxA residues 223-722 with the I-site substitution R615A) (domain or fragment)
[8]
  stoichiometry N: 2
